The text below walks through data of patent publication US9926369B2, “Methods for treating hepatocellular cancer by administering an anti-Ang-2 antibody” (Regeneron Pharmaceuticals, Inc., priority 2009, dated 2018).

The test system of test [1] is Tie-2 phosphorylation (Ang-2-mediated) in HUVECs. Briefly: Inhibition of Ang-2-mediated Tie-2 phosphorylation in FOXO1-adenovirus infected HUVECs. Particulars: antibody 0.5 μg/ml. It counts as cell-based, human. The procedure: Further, the inventors have shown that infection of HUVECs with an adenovirus encoding FOXO1 results in expression and secretion of Ang-2, followed by activation of Tie-2 phosphorylation (Daly et al. 2006 PNAS 103:15491).
Anti-Ang-2 antibodies were tested for their ability to inhibit Tie-2 phosphorylation. Briefly, 7×10^5 HUVECs (Vec Technologies, Rensselaer, N.Y.) were plated in 6 cm cell culture dishes in 3.5 ml of MCDB131 Complete medium (Vec Technologies, Rensselaer, N.Y.). The following day, the cells were washed with Opti-MEM (Invitrogen Corp., Carlsbad, Calif.) and fed with 2 ml of Opti-MEM. […] Cells were then washed with MCDB131 and fed with 2 ml of MCDB131 containing anti-Ang-2 antibodies at a concentration of 0.5 μg/ml. At twenty hours post infection, cells were lysed and subjected to Tie-2 immunoprecipitation as described by Daly et al., Proc. Natl. Acad. Sci. USA 103:15491-15496 (2006). Immunoglobulin was collected on protein A/G beads (Santa Cruz Biotechnology, Santa Cruz, Calif.) for one hour. Beads were washed with cold lysis buffer and resuspended in SDS sample buffer for analysis by western blot with antibodies specific for phosphotyrosine (Millipore, Billerica, Mass.) or Tie-2. Signals were detected using HRP-conjugated secondary antibodies and ECL reagents (GE Healthcare, Piscataway, N.J.). X-Ray films were scanned and the phospho-Tie-2 and Tie-2 signals were quantified using ImageJ software. The phospho-Tie-2/Tie-2 ratios were used to determine the % inhibition for each anti-Ang-2 antibody (i.e. Percent inhibition=Reduction in phospho-Tie-2/Tie-2 as compared to control).

Test [2] has as its system PC3 (Human Prostate Cancer Cell Line) tumors. Briefly: PC3 mouse tumor model. In kind it is in vivo, NCr nude mice. Particulars: PC3, 2 mg/kg twice per week. On the procedure:
Briefly, 5×10^6 PC3 cells in 100 μl of growth factor-reduced Matrigel (BD Biosciences) were injected subcutaneously into the flanks of 6-8 week old male NCr nude mice (Taconic, Hudson, N.Y.). After tumor volumes reached an average of about 200 mm^3, mice were randomized into groups for treatment. […] Tumor volumes were measured twice per week over the course of the experiment and tumor weights were measured upon excision of tumors at the conclusion of the experiment. Averages (mean+/−standard deviation) of tumor weight and growth were calculated for each treatment group. Percent decrease of tumor weight and growth were calculated from comparison to Fc protein measurements.

Test [3] concerns COLO 205 (Human Colorectal Adenocarcinoma Cell Line) tumors. In words: COLO 205 mouse tumor model. In kind it is in vivo, mice. Particulars: COLO 205, NCr nude mice, 4 mg/kg intraperitoneal twice per week. On the procedure:
Briefly, 2×10^6COLO 205 cells in 100 μl of serum-free medium were injected subcutaneously into the flank of 6-8 week old male NCr nude mice (Taconic, Hudson, N.Y.). After tumor volumes reached an average of about 150 mm^3, mice were randomized into groups for treatment with antibody or Fc protein. Mice in each treatment group were administered an anti-Ang-2 antibody or Fc protein at a concentration of 4 mg/kg via intraperitoneal injection twice per week for approximately two weeks. Tumor volumes were measured twice per week over the course of the experiment and tumor weights were measured upon excision of tumors at the conclusion of the experiment. Averages (mean+/−standard deviation) of tumor weight and growth were calculated for each treatment group. “Avg. Tumor Growth” represents the average growth from the time of treatment initiation (when tumors were approximately 150 mm^3). Percent decrease of tumor weight and growth are calculated from comparison to Fc protein measurements.
A similar experiment was carried out to assess the effect of H1H685P, in particular, on COLO 205 tumor growth. Briefly, 2×10^6 COLO 205 cells in 100 μl of serum-free medium were implanted subcutaneously into the right hind flank of 9-11 week-old male SCID CB17 mice. When the tumors reached ˜125 mm^3, mice were randomized into 5 groups (n=7-8 mice/group) and treated twice per week with Fc protein (15 mg/kg), H1H685P (5 or 25 mg/kg) or Control II (5 or 25 mg/kg) for a period of 19 days. Tumor volumes were measured twice per week over the course of the experiment and tumor weights were measured upon excision of tumors at the end of the experiment. Averages of tumor weight and growth from the beginning of treatment were calculated for each group. Percent decrease of tumor weight and growth are calculated from comparison to the Fc control group.
To determine the effect of combining an anti-Ang-2 antibody with a VEGF inhibitor on the growth of COLO 205 xenografts, 2×10^6 cells were implanted subcutaneously into the right hind flank of 6-8 week-old female SCID mice. When the tumors reached an average volume of ˜350 mm^3, mice were randomized into 4 groups (n=6 mice/group) and treated with: human Fc protein (7.5 mg/kg), H1H685P (5 mg/kg), VEGF Trap (see U.S. Pat. No. 7,087,411) (2.5 mg/kg) or the combination of H1H685P+VEGF Trap. Mice were given a total of 3 doses over 10 days of treatment. Tumor volumes were measured twice per week over the course of the experiment. Averages of tumor growth from the start of treatment (mean+/−standard deviation) were calculated for each treatment group. Percent decrease of tumor growth was calculated from comparison to the Fc control group.
To test the effect of H1H685P in combination with a chemotherapeutic agent on tumor growth, 2.5×10^6 COLO 205 tumor cells were implanted subcutaneously into the right hind flank of 8-9 week-old male SCID mice. When the tumors reached an average volume of ˜150 mm^3 (day 17 after implantation), mice were randomized into 4 groups (n=5 mice/group) and treated as follows: the first group was treated sc with 15 mg/kg hFc and intraperitoneally (ip) with 5-FU vehicle; the second group was treated sc with 15 mg/kg of H1H685P; the third group was treated ip with 75 mg/kg of 5-FU; the fourth group was treated with the combination of 15 mg/kg H1H685P sc plus 75 mg/kg 5-FU ip. Mice received a total of three treatments, administered every 3-4 days. Tumor volumes were measured twice per week over the course of the experiment. Average (mean+/−standard deviation) tumor growth from the beginning of treatment until day 38 was calculated for each group. Percent decrease of tumor growth was calculated from comparison to the control group.

B1: H1M749N: anti-Ang-2 antibody, HCVR/LCVR SEQ ID NOs 314/322 (antibody, V domains shown)
VH: QVQLVESGGGVVQPGRSLRLSCAASGFTFSSYGMHWVRQAPGKGLEWVAVIWYDEFNKYYADSVKGRFTISRDNSKNTLYLQMNSLRAEDTAVYYCARERESGYSYGFDYWGQGTLVTVSS
VL: EIVMTQSPATLSVSPGERATLSCRAGQSVSSNLAWYQQKPGQAPRLLIYGASTRATGIPARFSGSGSGTEFTLTISSLQSEDFAVYYCQQYNNWWTFGQGTKVEIK
As for B1, in test [1], the “Inhibition of Tie-2 phosphorylation” value was “++ (50-75%)”. For the same molecule, in test [2], the “% Decrease in Tumor Growth” value is reported as 54%, the “% Decrease in Tumor Weight” value is 31%, the “Avg Tumor Growth” value was 220 ± 261 mm^3 and the “Avg Tumor Weight” value is reported as 0.383 ± 0.275 g. Moreover, in test [3], the “% Decrease in Tumor Growth” value turned out to be 39%, the “% Decrease in Tumor Weight” value is recorded as 29% and the “Avg Tumor Growth” value was 449 ± 169 mm^3. In test [3] (approximately two weeks), the “Avg Tumor Weight” value is 0.603 ± 0.142 g.
